Key:
human glioma in situ = assay: In situ glioma model, immunohistochemical detection of EGFR and PCNA; assay type: in vivo, nude mice; details: 10 mg/kg intravenous, every other day, 5 times
Procedure: The administration was performed once every other day, 5 times in total, and after the administration cycle was completed, the mice were euthanized the next day, the brain tissues were taken and paraffin-embedded, and sectioned for immunohistochemical staining to study the protein degradation effect of NTZ on target protein EGFR and the tumor inhibition by detecting the tumor proliferation marker PCNA.

EGFR [1] = target: T1, EGFR (Homo sapiens, UniProt P00533); assay: EGFR protein degradation in cells, protein electrophoresis (Western blot); assay type: cell-based
T1 construct: can degrade the membrane receptor protein EGFR in various tumor cells; endogenous in cells; host or cells: MDA-MB-231 (M231), HeLa, U87
Procedure: In the above, the NP group refers to nanoparticles not linked with the POI recognition groups in the example. In all the examples involving multi-concentration test, the control group for POI recognition group and the control group for lipid hybrid substance were treated with the molar concentration equal to the highest concentration in concentration test group. All the protein electropherograms take GAPDH or VIN (vinculin) as internal reference.

β-amyloid 1-42 oligomer = target: T2, β-amyloid 1-42 oligomer (Homo sapiens, UniProt P05067); assay: Endocytosis of FITC-labeled β-amyloid 1-42 oligomer in human glial cells, confocal microscope; assay type: cell-based; details: 10 μM, 12 hours
T2 construct: oligomers prepared from FITC green dye-labeled β-amyloid 1-42 polypeptide; host or cells: exogenous peptide added to human glial cells
T2 sequence (P05067 672-713 limits assumed): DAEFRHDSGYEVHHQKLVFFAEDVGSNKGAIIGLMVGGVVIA
Procedure: 1 μM FITC fluorescein-labeled 5 μM β-amyloid oligomer and AB-NP were co-cultured in human glial cells for 4 hours, subsequently extracellular solution was washed away with PBS. […] The lysosome theoretically can degrade β-amyloid so as to eliminate toxicity brought about by β-amyloid extracellular accumulation. (3) β-amyloid hijack experiment: 10 μM oligomers prepared from FITC green dye-labeled 3-amyloid 1-42 peptide and 10 μM AV45-NP were co-incubated, then, the treated residue not entering the cell was washed off with PBS, followed by confocal microscope imaging, to detect green fluorescence of the β-amyloid 1-42 oligomers. […] The lysosomal dye lysoTracker was used to label the lysosome. […] 10 μM AV-45 or AV45-NP and 10 μM FITC green fluorescence dye-labeled β-amyloid oligomers were co-incubated in culture medium and treated human glial cells for 12 hours.

[2] = Dynamic light scattering particle size and PDI; assay type: physicochemical
From the text: FIG. 68 is a structural schematic diagram of CTX-RBCmD. FIG. 69 is a diagram of DLS particle size distribution results.

EGFR [3] = target: T1, EGFR; assay: EGFR on cell surfaces, immunofluorescent staining and confocal microscopy, M231 cells; assay type: cell-based; details: 500 nM antibodies, 24 hours
EGFP-labeled fused EGFR = target: T3, EGFP-labeled fused EGFR (Homo sapiens, UniProt P00533); assay: Live-cell confocal imaging of EGFP-fused EGFR in M231 cells; assay type: cell-based; details: M231 living cells, fixed visual field, photographed continuously
T3 construct: expressed in transfected cells; host or cells: MDA-MB-231 (M231)

HepG2 cells = assay: CCK8 cell viability assay; assay type: cell-based, human; details: 500 nM antibody, 24 h, p<0.001
[4] = Acute toxicity, blood parameters of liver and kidney function after a single administration; assay type: in vivo, mice; details: 10 mg/kg via tail vein, blood 12 hours after injection
Procedure: In the present example, acute hepatotoxicity on mice by the NTZ-NP nano-structural protein degradation tool was studied. The nanoparticles, the solvent PBS control, NTZ antibodies of equal molar quantity, and NP of equal molar quantity without NTZ antibodies (10 mg/kg) were injected into mice via tail vein, blood was taken 12 hours after injection, and blood biochemical indicators were detected by a kit.

PD-1 receptor protein = target: T4, PD-1 receptor protein (Homo sapiens, UniProt Q15116); assay: PD-1 expression in JURKAT cells overexpressing PD-1, protein electrophoresis; assay type: cell-based; details: JURKAT cells overexpressing PD-1, 500 nM, 24 h
T4 construct: expressed in transfected cells; host or cells: JURKAT cells overexpressing PD-1
T4 sequence (Q15116 25-288): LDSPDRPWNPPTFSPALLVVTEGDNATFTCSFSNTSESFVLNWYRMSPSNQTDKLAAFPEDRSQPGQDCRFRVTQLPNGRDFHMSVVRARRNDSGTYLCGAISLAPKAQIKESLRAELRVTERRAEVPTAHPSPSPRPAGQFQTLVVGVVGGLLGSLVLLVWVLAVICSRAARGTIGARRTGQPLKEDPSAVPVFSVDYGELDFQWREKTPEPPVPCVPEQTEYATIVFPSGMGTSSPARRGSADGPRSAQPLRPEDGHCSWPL

[5] = M231 cells, 500 nM, fresh medium without treatment from the 24th hour

Procedure for M231 tumor: Administration every other day (15 mg/kg) was started on day 10 of inoculation of M231 tumor in female nude mice at 6-8 weeks of age, and a volume of the tumor (tumor length: a and width: b, volume calculation formula: ½ab^2) of the mice and body weight change were continuously monitored. After two weeks of administration, 7 times in total, the mice were euthanized the next day after the last administration, tumor tissues were isolated, and the tumor tissues were subjected to protein electrophoresis and immunofluorescence detection.
In the above, after being isolated, the tumor tissues were paraffin-embedded and sectioned, followed by immunofluorescence staining, and immunofluorescence staining results of EGFR and apoptotic core signal cleaved caspase-3 were detected.

In the case of “ANG/NTZ-NP: NTZ-PEG-DSPE plus 20% Angiopep2-PEG-DSPE self-assembled with PLGA”, the “EGFR in brain tumor (immunohistochemistry)” value (human glioma in situ) is reported as “solvent PBS control group and the NTZ-NP group are stronger than the ANG/NTZ-NP group” and the “proliferation marker PCNA in brain tumor (immunohistochemistry)” value (human glioma in situ) is reported as “solvent PBS control group and the NTZ-NP group are stronger than the ANG/NTZ-NP group”.

For “NTZ-LNP2: NTZ-PEG-DMG with HSPC + cholesterol + DOTAP lipid nanoparticle”, the “EGFR protein expression (protein electrophoresis)” value (EGFR [1]; M231 cells, 24 h, concentration not given) was “can effectively degrade the target protein EGFR”.

With `CNc1ccc(/C=C/c2ccc(OCCOCCOCCF)nc2)cc1` [AV45, AV-45] the “AV45 autofluorescence in cells (cell internalization)” value (β-amyloid 1-42 oligomer) was “very weak”.

With “NTZ-lipoP: NTZ-PEG-DSPE on HSPC/cholesterol lipid membrane wrapping PLGA nanoparticles” the “SIZE (DLS particle size)” value [2] was 257 ± 7.0.

In the case of “NTZ-NP: PLGA nanoparticle core, PEG-DSPE intermediate layer, NTZ antibodies at periphery”, the “EGFR expression (protein electrophoresis)” value (EGFR [1]; HeLa cells, 500 nM, 24 h) is reported as “obvious decreases in EGFR expression”, the “EGFR protein level / expression (protein electrophoresis)” value (EGFR [1]; M231 cells, 500 nM, 24 h) is reported as “obvious decreases in EGFR expression” and the “EGFR gradually recovered after” value (EGFR [1]; [5]) is reported as greater than 72 h. The “optimal degradation time for a single treatment” value (EGFR [1]; [5]) was 24 to 48 h, the “concentration at which EGFR is effectively degraded (as low as)” value (EGFR [1]; M231 cells, 24 h) was 10 nM and the “EGFR expression (protein electrophoresis)” value (EGFR [1]; U87 cells, 500 nM, 24 h) was “obvious decreases in EGFR expression”. For the same molecule, the “EGFR expression on cell surfaces (immunofluorescence)” value (EGFR [3]) was “remarkably decreased”, the “green fluorescence signal of EGFP-labeled fused EGFR” value (EGFP-labeled fused EGFR) was “gradually decreases over time” and the “cell proliferation (CCK8 cell viability)” value (HepG2 cells) was “significantly inhibited”. For the same molecule, the “blood parameters BUN, UA, CR, ALB, ALP, ALT, AST” value [4] was “no obvious abnormality”, the “EGFR in brain tumor (immunohistochemistry)” value (human glioma in situ) was “stronger than the ANG/NTZ-NP group” and the “proliferation marker PCNA in brain tumor (immunohistochemistry)” value (human glioma in situ) was “stronger than the ANG/NTZ-NP group”. For the same molecule, the “particle size (dynamic light scattering)” value [2] was “about 150 nm”, the “EGFR protein expression level in isolated tumor tissues (protein electrophoresis)” value (M231 tumor; 15 mg/kg every other day, 7 times, five mice, p<0.05) was “significantly down-regulated” and the tumor volume proliferation (M231 tumor; 15 mg/kg every other day, 7 times, versus PBS, equal molar NTZ antibody and antibody-free nanoparticle groups) was “obviously inhibited”. For the same molecule, the “EGFR signal in tumor tissues (immunofluorescence staining)” value (M231 tumor; after treatment completed) was “EGFR signal is reduced” and the “apoptotic signal cleaved caspase-3 in tumor tissues (immunofluorescence staining)” value (M231 tumor; after treatment completed) was “apoptotic signal rises”.

With “NTZ-PEGlipo: NTZ antibody coupled to NHS-PEG liposomes (HSPC + cholesterol)” the “EGFR protein level / expression (protein electrophoresis)” value (EGFR [1]; M231 cells, 500 nM, 24 h) was “can effectively degrade the target protein EGFR”.

B1: CRLZ-NP: Camrelizumab (CRLZ), PEG-DSPE linker, PLGA nanoparticle (conjugate, chains of the INN, looked up)
VH: EVQLVESGGGLVQPGGSLRLSCAASGFTFSSYMMSWVRQAPGKGLEWVATISGGGANTYYPDSVKGRFTISRDNAKNSLYLQMNSLRAEDTAVYYCARQLYYFDYWGQGTTVTVSS
VL: DIQMTQSPSSLSASVGDRVTITCLASQTIGTWLTWYQQKPGKAPKLLIYTATSLADGVPSRFSGSGSGTDFTLTISSLQPEDFATYYCQQVYSIPWTFGGGTKVEIK
modifications: PEG-DSPE PLGA nanoparticle
For B1, the “expression of PD-1 receptor protein” value (PD-1 receptor protein) was “obviously reduced”.

From patent US20240033374A1, “Nano-structural Protein Degradation Tool, Use, and Preparation Method thereof, and Lipid-based Protein Degradation Tool, Use, and Preparation Method thereof” (HENAN UNIVERSITY, priority 2022, published 2024)
